These results are taken from patent publication US20160298109A1.

Test [1] concerns the target gp120 of HIV-1 BaL (HIV-1 BaL). In words: cell-based or functional assay.
For test [2], the target named is GP120 (HIV-1 JRFL). In words: SPR. The following applies: chains peptide; modification not given.
Test [3] addresses HIV-1 JRFL gp120 protein (HIV-1 JRFL). In words: peptide blocking ELISA: coated gp120 pre-incubated with GP3 (125 ng), then recombinant CCR5-GST, anti-GST HRP; competitor CCR5. On the technique in general: In an ELISA, binding on a coated surface is turned into a signal by an enzyme label.

The term Kd denotes the equilibrium constant for the complex coming apart. Low readings indicate tighter binding, high ones weaker binding.

Where only a bound is given, the exact number is not on record here.

SYSFCPRRQGGGGGGSGGSGK (modifications not checked) [GP3]: in test [1], the inhibition of HIV-1 BaL infection (p24+ CD4 T cells), peptide without streptavidin, 100 µM is 34.5% and the inhibition of HIV-1 BaL infection (p24+ CD4 T cells), peptide without streptavidin, 250 µM was found to be 54.7%. In addition, the Kd in test [2] worked out at 39.1 µM. Besides, the reduction in absorbance (CCR5 binding to gp120) in test [3] was 65.8%.

The molecule RRRNVPLILGGGGGGSGGSGK [GP2] registered a Kd in test [2] of 76.1 µM. That is a double-digit micromolar value.

In test [1], LWCRRLNLLGGGGGGSGGSGK [GP16] registered an inhibition of HIV-1 BaL infection (p24+ CD4 T cells), peptide without streptavidin, 50 µM of less than 1%; an inhibition of HIV-1 BaL infection (p24+ CD4 T cells), peptide without streptavidin, 100 µM of less than 1%; an inhibition of HIV-1 BaL infection (p24+ CD4 T cells), peptide without streptavidin, 250 µM of 50%; a viral inhibition, peptide conjugated with streptavidin, 50 µM of 62.6%. Moreover, the dissociation constant Kd in test [2] amounted to 42.7 µM.

In test [2], LLALSAYMVGGGGGGSGGSGK [GP11] showed a Kd of 48.3 µM.
